Literature values, collected in patent US20170240926A1, “METHODS FOR PRENYLATION OF PEPTIDES AND THEIR USE IN OVER-PRODUCTION OF FARNESENE AND GERANYLGERANYL TERPENES” (University of North Texas, priority 2016, published 2017).

Target: FTase (Rattus norvegicus, UniProt Q02293+Q04631)
Conditions: 10 μM FPP, 0.4-10 μM dansylated peptide, 25-300 nM FTase, 50 mM HEPPSO pH 7.8, 25° C.

CFLS: peptide of the form dansyl-TKCxxx with C-terminal CFLS; SCAMPER
kfarn: 0.46 ± 0.05 s⁻¹
